Test results from US20240029824A1 (University of Washington, published 2024).
Substitutions are numbered along the chain they refer to. One block for each binder: values may come before it.

What was measured:
[1] = target: T1, DHT03_2arm_A21/Bt18/C chain B; test: co-expression, SEC, native MS, SAXS; chains of one ABC heterotrimer
T1 chain: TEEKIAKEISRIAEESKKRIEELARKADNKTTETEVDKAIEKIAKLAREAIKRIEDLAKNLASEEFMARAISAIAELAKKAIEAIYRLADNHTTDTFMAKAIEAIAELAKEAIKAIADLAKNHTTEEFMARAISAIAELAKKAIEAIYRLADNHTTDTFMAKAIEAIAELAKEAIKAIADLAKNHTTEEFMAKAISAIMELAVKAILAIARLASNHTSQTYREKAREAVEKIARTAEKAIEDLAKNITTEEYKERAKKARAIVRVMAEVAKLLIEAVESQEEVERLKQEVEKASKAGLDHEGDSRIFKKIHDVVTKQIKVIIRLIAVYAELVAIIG

[2] = target: T2, DHT03_2arm_A21/B62/C chain B; test: as above
T2 chain: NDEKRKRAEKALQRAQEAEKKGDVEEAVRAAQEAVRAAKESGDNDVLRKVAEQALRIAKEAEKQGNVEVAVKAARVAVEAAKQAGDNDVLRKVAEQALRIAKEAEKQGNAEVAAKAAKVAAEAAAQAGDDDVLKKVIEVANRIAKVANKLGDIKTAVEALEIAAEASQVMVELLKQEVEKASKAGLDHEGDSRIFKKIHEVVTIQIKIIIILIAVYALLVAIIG

[3] = target: T3, DHT03 chain C (SEQ ID NO: 65); test: as above
T3 chain: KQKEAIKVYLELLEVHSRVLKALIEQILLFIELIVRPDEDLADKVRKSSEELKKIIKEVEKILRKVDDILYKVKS

[4] = target: T4, DHT03_2arm_A21/B14/C chain B; test: as above
T4 chain: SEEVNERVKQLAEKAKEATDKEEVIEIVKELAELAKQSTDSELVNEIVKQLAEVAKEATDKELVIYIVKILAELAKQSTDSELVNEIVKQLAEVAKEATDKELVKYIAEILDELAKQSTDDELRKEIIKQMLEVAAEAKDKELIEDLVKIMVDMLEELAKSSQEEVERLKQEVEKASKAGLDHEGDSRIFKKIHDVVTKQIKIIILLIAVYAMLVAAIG

[5] = target: T5, DHT03_3arm_A21/B21/C82 chain C; test: individually purified chains mixed 1:1:1, heat annealed, SEC
T5 construct: also called chain C DHR82 fusion; chain C of C3-DHT03-01-DHR82 and C4-DHT03-01-DHR82
T5 chain: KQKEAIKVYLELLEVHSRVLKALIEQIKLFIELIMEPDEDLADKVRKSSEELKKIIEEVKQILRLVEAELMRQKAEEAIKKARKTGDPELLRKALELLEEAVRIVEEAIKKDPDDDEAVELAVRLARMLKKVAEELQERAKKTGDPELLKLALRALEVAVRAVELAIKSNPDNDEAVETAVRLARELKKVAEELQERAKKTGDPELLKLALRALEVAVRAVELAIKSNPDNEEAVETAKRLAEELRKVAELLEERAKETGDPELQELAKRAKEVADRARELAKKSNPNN
Source text: (§1) To test this idea, an equimolar amount of individually purified A, B, and C of DHT03_2arm_A21/B21/C were mixed together and run through an annealing protocol (see Methods) to allow these interfaces to reassemble in the presence of all components. A monodisperse SEC peak was observed belonging to the ABC heterotrimer state as confirmed by overlap with its SEC co-expressed tricistronic version (FIG. 3d). To explore the use of this approach for building, four different repeat protein fusions to chain C were annealed in the same manner and all four 3-arm heterotrimers were successfully reconstituted. […] The successful reconstitution of these ABC assemblies, following the independent expression and purification of each chain and explicit mixing at a 1:1:1 ratio, enables their use in conjunction with other de novo proteins to mediate the specific assembly of multi-component assemblies. Independent expression also has considerable advantages over tricistronic expression from a gene synthesis perspective as DNA becomes much more difficult and expensive to synthesize with increasing construct size.
(§2) To test whether the DHT03 components could properly assemble in the presence of other helical hairpin containing chains, as would be the case for more complex assemblies, we chose DHD131, a designed helical hairpin unit heterodimer containing buried hydrogen bond networks¹². […] We evaluated simultaneous reconstitution of DHD131 and DHT03_3arm_A21/B21/C82, since the size difference between the two constructs (if correctly assembled) should be detected by SEC. We separately expressed and individually purified the two chains of the heterodimer and the three chains of the heterotrimer, mixed them at a 1:1:1:1:1 ratio, and carried out annealing and SEC as described above.

[6] = target: T6, DHT03_3arm_A21/B21/C62 chain C; test: as above
T6 chain: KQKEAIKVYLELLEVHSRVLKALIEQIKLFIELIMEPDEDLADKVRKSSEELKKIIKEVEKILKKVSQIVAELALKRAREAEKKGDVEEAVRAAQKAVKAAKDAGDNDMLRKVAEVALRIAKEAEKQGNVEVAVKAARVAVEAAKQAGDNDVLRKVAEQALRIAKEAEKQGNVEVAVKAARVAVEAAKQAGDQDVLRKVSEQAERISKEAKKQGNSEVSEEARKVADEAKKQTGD
Source text: as §1, §2

[7] = target: T7, DHT03_3arm_A21/B21/C53 chain C; test: as above
T7 chain: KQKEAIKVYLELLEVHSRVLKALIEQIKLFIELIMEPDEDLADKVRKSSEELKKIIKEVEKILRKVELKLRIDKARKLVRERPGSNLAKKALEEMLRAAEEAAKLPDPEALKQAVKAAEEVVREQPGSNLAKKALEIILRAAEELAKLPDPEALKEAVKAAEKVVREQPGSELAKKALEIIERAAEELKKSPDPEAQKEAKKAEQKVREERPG
Source text: as §1, §2

[8] = target: T8, DHT03_3arm chain B (B21, SEQ ID NO: 73); test: as above
T8 construct: separately expressed with an N- or C-terminal 6xHis-tag
T8 chain: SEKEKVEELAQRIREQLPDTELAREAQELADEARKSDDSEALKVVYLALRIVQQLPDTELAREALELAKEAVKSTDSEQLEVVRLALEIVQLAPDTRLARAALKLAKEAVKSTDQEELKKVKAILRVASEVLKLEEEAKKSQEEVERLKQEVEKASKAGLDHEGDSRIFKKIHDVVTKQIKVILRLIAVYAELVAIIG
Source text: as §1, §2

[9] = target: T9, DHT03_3arm_A21/B21/C59 chain C; test: as above
T9 chain: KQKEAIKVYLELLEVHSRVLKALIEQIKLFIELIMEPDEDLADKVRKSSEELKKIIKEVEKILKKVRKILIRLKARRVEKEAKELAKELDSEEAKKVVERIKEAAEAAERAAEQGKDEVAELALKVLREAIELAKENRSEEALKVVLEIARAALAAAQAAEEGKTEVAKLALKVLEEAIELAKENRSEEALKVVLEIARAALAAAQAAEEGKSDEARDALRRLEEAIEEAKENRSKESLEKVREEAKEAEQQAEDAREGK
Source text: as §1, §2

binding result [1]: binds
binding result [2]: binds
binding result [3]: binds
B1: DHT03 A21 fusion chain A (SEQ ID NO: 63) (designed binder)
chain: SEKEKVEELAQRIREQLPDTELAREAQELADEARKSDDSEALKVVYLALRIVQQLPDTELAREALELAKEAVKSTDSEALKVVYLALRIVQQLPDTELARLALELAKKAVEMTAQEVLEIAKAALKAAQAFPNTELAELMLRLAEVAARVMKELERNDEEIKKSDELDDESLLEDIVELLKEIIKLWKILVEVSDVMLKLIS

binding result [4]: binds
B2: DHT03 A21 fusion chain A (SEQ ID NO: 66) (designed binder)
chain: B1 chain with E119A

binding result [5]: binds
binding result [6]: binds
binding result [7]: binds
binding result [8]: binds
binding result [9]: binds
B3: DHT03_3arm chain A (A21, SEQ ID NO: 72) (designed binder)
chain: B1 chain with E119A, E170A, E174A, E178R, K181A
notes: separately expressed with an N- or C-terminal 6xHis-tag
